In one test the target is PDK1 1-556 (UniProt O15530). Kind of test: AlphaScreen GST-PRK2 / His-PDK1. As to conditions: reference: wild type; sites T958.
Test [1] addresses PDK1 catalytic domain, 50-359 (UniProt O15530). Kind of test: AlphaScreen GST-PRK2 / His-PDK1. The settings on record: reference: wild type; sites T958. Background: Alpha assays give light when donor and acceptor beads are brought close together.

The values below come from PMC11357854.

For the substance “PRK2 (PKN2) 1-984 (from UniProt Q16513) T958A”, the “binding against the reference” value (in the test with PDK1 1-556; in test [1]) was “stronger” in each case.
For “PRK2 (PKN2) catalytic domain, 643-984 (from UniProt Q16513) T958A”, in test [1], the “binding against the reference” value is recorded as “stronger”.
